Measured values published in article PMC8867601, “The TERB1 MYB domain suppresses telomere erosion in meiotic prophase I”.

T1: hTERB1-MYB (Homo sapiens, UniProt Q8NA31 666-719)
T1 sequence: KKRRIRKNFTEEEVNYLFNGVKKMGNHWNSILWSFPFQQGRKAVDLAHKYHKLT

T2: mTERB1-MYB (Mus musculus, UniProt Q8C0V1 707-760)
T2 sequence: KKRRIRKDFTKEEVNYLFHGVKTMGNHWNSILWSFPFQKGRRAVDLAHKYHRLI

B1: dsDNA_scrambled_8-mer (dsDNA)
DNA 1: GACAGCGATGAGAACTAATTCGTGTGCTTGCTGACTGATATCGTGACT
DNA 2: AGTCACGATATCAGTCAGCAAGCACACGAATTAGTTCTCATCGCTGTC
B2: dsDNA_telo_8-mer (TTAGGG)8 (dsDNA)
DNA 1: TTAGGGTTAGGGTTAGGGTTAGGGTTAGGGTTAGGGTTAGGGTTAGGG
DNA 2: CCCTAACCCTAACCCTAACCCTAACCCTAACCCTAACCCTAACCCTAA

What was measured:
hTERB1-MYB [1] = target: T1, hTERB1-MYB; experiment: EMSA; 2-8 uM protein, 150 nM probe; 50 mM Tris-HCl pH 8.0, 6.5% glycerol, 20 mM NaCl, 5 mM DTT, 150 nM probe, 10 ul, 30 min on ice; 4-20% TBE native gel; conditions: protein: recombinant; tags: none after Ulp1 cleavage of His-Smt3; label: 32P (T4 PNK)
mTERB1-MYB [2] = target: T2, mTERB1-MYB; experiment: as above; conditions: protein: recombinant; tags: 6xHis (not cleaved); label: 32P (T4 PNK)
hTERB1-MYB [3] = target: T1, hTERB1-MYB; experiment: EMSA; 150 nM probe; 50 mM Tris-HCl pH 8.0, 6.5% glycerol, 20 mM NaCl, 5 mM DTT, 150 nM probe, 10 ul, 30 min on ice; 4-20% TBE native gel; conditions: protein: recombinant; tags: none after Ulp1 cleavage of His-Smt3; label: 32P (T4 PNK)
mTERB1-MYB [4] = target: T2, mTERB1-MYB; experiment: as above; conditions: protein: recombinant; tags: 6xHis (not cleaved); label: 32P (T4 PNK)
hTRF2-MYB = hTRF2-MYB (Homo sapiens, UniProt Q15554 488-542); experiment: as above; conditions: protein: recombinant; tags: none after Ulp1 cleavage of 10xHis-Smt3; label: 32P (T4 PNK)
Sequence of hTRF2-MYB (Q15554 488-542): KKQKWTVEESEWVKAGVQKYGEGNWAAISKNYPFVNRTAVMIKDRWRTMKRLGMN

Binder | binding result (hTERB1-MYB [1]) | binding result (mTERB1-MYB [2]) | binding result (hTERB1-MYB [3]) | binding result (mTERB1-MYB [4]) | binding result (hTRF2-MYB)
B1 | no binding | no binding | – | – | –
B2 | – | – | no binding | no binding | binds
